According to patent US20040253243:

How the values were obtained:
PDGF-AB (Homo sapiens) = PDGF-AB (Homo sapiens) (UniProt P04085+P01127); settings: [PEG40K]-NH2-dCdAdGdGdCfUdAfCmG-PEG-dCdGTdAmGdAmGdCdAfUfCmA-PEG-TdGdATfCfCfUmG-3T (f 2'-F, m 2'-OMe, d deoxy; PEG spacers)
PDGF-BB (Homo sapiens) = PDGF-BB (Homo sapiens) (UniProt P01127); settings: [PEG40K]-NH2-dCdAdGdGdCfUdAfCmG-PEG-dCdGTdAmGdAmGdCdAfUfCmA-PEG-TdGdATfCfCfUmG-3T (f 2'-F, m 2'-OMe, d deoxy; PEG spacers)
Sequence of PDGF-BB (Homo sapiens) (P01127 82-190): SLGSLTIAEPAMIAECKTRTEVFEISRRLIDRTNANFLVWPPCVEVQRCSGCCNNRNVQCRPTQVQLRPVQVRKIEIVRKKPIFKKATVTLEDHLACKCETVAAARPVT

Sequence of PDGF-AB (Homo sapiens) (P01127 82-190, chain 2 of 2, other chains not shown): as the sequence (P01127 82-190) above

CAGGCUACGCGTAGAGCAUCATGATCCUG [ARC127]
Kd (PDGF-AB (Homo sapiens)): 0.1 nM
Kd (PDGF-BB (Homo sapiens)): 0.1 nM
